Test results taken from patent US20140241984A1.
Numbering of substitutions follows the chain as printed.

B1: Syn-F1 (antibody, V domains shown)
VH: DVQLVESGGDLVQPGGSRKLSCAASGFTFSSFGMHWVRQAPEKGLEWVAYINSGSSTIYYADTVKGRFTISRDNPKNTLFLQMTSLRSEDTAMYYCARGNNPGTGYYYSMDYWGQGTSVTVSS
VL: not shown
B2: Syn-F2 (antibody, IgG2a, V domains shown)
VH: B1 VH with D10G, N52S, S109A
VL: not shown
B3: Syn-O1 (antibody, IgG2b, V domains shown)
VH: EVQLVESGGGLVQPKGSLKLSCAASGFTFNTYAMHWVRQAPGKGLEWVARIRSKSSNYATYYADSVKDRFTISRDDSQSMLYLQMNNLKTEDTAMYYCVRPLKWYFDVWGTGTTVTVSS
VL: QIVLTQSPAILSASPGEKVTMTCSASSTVNYMHWYQQKSGTSPKIWIYDTSKLASGVPARFSGSGSWTSYSLTISSMEAEDAATYYCQQWNSNPPTFGAGTKLELK
B4: Syn-O2 (antibody, IgG1, V domains shown)
VH: B3 VH
VL: B3 VL
B5: Syn-O3 (antibody, IgG1, V domains shown)
VH: B3 VH
VL: B3 VL
B6: Syn-O4 (antibody, IgG1, V domains shown)
VH: B3 VH
VL: B3 VL

Biological target: α-synuclein fibrils (human), P37840
Assay: inhibition ELISA; fibrils against monomers
Settings: remark: other sources report otherwise

First: B1
Second: B2
The Fold Affinity to Fibrils of the first is higher: 16600 fold for the first, 3140 fold for the second.

Going from B3 to B4, the Fold Affinity to Fibrils rises from 12700 fold to 27300 fold.

Compared with B5, B6 is lower in Fold Affinity to Fibrils: 11100 fold for the first, 6930 fold for the second.

Biological target: α-synuclein fibrils (human), P37840
Assay: SPR, BIAcore X100; fibrils immobilised on CM5, mAb injected at 0.01-10 nM
Settings: remark: other sources report otherwise

First: B1
Second: B2
The Kd of the first is 21-fold lower: 0.127 nM for the first, 2.69 nM for the second.

First: B3
Second: B4
The Kd of the first is 6.1-fold lower: 0.016 nM for the first, 0.0969 nM for the second. The first binds more tightly here.

B5 and B6 are within 1.5-fold of each other in Kd: 0.171 nM for the first, 0.138 nM for the second.

Going from B1 to B2, the koff rises from 0.00156 s⁻¹ to 0.00338 s⁻¹ (2.2-fold).

First: B3
Second: B4
The koff of the first is 14-fold lower: 9.36e-05 s⁻¹ for the first, 0.00127 s⁻¹ for the second.

Compared with B5, B6 is 2.6-fold higher in koff: 0.000379 s⁻¹ for the first, 0.000996 s⁻¹ for the second.

Compared with B1, B2 is 9.8-fold lower in kon: 1.23e+07 M⁻¹ s⁻¹ for the first, 1.26e+06 M⁻¹ s⁻¹ for the second.

Going from B3 to B4, the kon rises from 5.86e+06 M⁻¹ s⁻¹ to 1.31e+07 M⁻¹ s⁻¹ (2.2-fold).

Going from B5 to B6, the kon rises from 2.22e+06 M⁻¹ s⁻¹ to 7.24e+06 M⁻¹ s⁻¹ (3.3-fold).
